Reference: patent publication US20260028400A1

Target: ROR1 expressed on cell surface (Jeko-1 cell line, AMB-LC-0003T and AMB-LC-0002T patient-derived lung cancer cells) (human) (UniProt Q01973)
Test: cell-based or functional assay

Sequence of ROR1 expressed on cell surface (Jeko-1 cell line, AMB-LC-0003T and AMB-LC-0002T patient-derived lung cancer cells) (human) (Q01973 30-937): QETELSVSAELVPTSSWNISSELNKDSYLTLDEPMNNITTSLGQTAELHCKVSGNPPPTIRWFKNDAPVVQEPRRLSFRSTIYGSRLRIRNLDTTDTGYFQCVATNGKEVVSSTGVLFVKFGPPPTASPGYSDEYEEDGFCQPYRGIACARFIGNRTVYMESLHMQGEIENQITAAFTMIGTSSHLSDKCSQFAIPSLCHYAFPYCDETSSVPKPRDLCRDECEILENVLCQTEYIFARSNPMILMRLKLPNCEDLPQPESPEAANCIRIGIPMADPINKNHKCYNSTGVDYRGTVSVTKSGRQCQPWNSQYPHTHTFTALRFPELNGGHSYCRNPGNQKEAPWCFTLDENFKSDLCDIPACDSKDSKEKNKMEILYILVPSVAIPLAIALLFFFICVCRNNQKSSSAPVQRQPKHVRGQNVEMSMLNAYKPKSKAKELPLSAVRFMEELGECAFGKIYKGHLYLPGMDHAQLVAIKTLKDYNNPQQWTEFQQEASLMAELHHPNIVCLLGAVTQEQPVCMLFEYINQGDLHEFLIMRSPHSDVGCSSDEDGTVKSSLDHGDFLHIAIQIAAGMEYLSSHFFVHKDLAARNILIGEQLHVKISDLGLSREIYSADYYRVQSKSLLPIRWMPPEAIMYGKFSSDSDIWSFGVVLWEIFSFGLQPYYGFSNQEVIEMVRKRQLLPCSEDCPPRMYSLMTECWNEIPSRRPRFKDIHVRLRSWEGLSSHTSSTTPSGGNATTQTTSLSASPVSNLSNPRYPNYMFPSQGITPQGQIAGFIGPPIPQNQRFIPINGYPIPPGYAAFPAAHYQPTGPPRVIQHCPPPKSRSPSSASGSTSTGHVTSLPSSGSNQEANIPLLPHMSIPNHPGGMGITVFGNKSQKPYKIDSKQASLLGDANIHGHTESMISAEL

UC961-vc-PAB-MMAE (antibody)
Fold Change of IC50, AMB-LC-0002T/AMB-LC-0003T: 11.1 fold
IC50 (nM), spheroid volume, AMB-LC-0002T (low ROR1 expression): 282 nM
IC50 (nM), spheroid volume, AMB-LC-0003T (high ROR1 expression): 25.4 nM
